The experiment addresses recombinant full-length human PrP^C (AA23-231) (human) (UniProt P04156).

Bounds are passed on as bounds.

“Poly-d-glutamic acid sodium salt (peptide)”: the IC50 was more than 1 µM.

(Values after US20210268016A1.)
